Source: patent US20120129766A1 (IRM, published 2012)

B1: hFGF21(33-209)-V14-R154C, L174P (ligand)
chain: DSSPLLQFGGQVRQRYLYTDDAQETEAHLEIREDGTVGGAAHQSPESLLELKALKPGVIQILGVKTSRFLCQKPDGALYGSLHFDPEACSFRELLLENGYNVYQSEAHGLPLHLPGNRSPHCDPAPQGPARFLPLPGLPPAPPEPPGILAPQPPDVGSSDPLAMVGPSQGRSPSYAS
B2: hFGF21(33-209)-V53 (ligand)
chain: DSSPLLQFGGQVRQRYLYTDDAQETEAHLEIREDGTVGGAAHQSPESLLELKALKPGVIQILGVKTSRFLCQKPDGALYGSLHFDPEACSFRELLLENGYNVYQSEAHGLPLHLPGNRSPHRDPASQGPARFLPLPGLPPAPPEPPGILAPQPPDVGSSDPLAMVGPSQGRSPSYAS
B3: hFGF21(33-209)-V18 (ligand)
chain: DSSPLLQFGGQVRQRYLYTDDAQQTESHLEIREDGTVGGAAHQSPESLLQLKALKPGVIQILGVQTSRFLCQKPDGALYGSLHFDPEACSFRELLLENGYNVYQSEAHGLPLHLPGNRSPHRDPAPQGPARFLPLPGLPPALPEPPGILAPQPPDVGSSDPLAMVGPSQGRSPSYAS
B4: hFGF21(33-209)-V16 (ligand)
chain: DSSPLLQFGGQVRQRYLYTDDAQETEAHLEIREDGTVGGAAHQSPESLLQLKALKPGVIQILGVKASRFLCQKPDGALYGSLHFDPEACSFRELLLENGYNVYQSEAHGLPLHLPGNRSPHRDPAPQGPARFLPLPGLPPALPEPPGILAPQPPDVGSSDPLAMVGPSQGRSPSYAS
B5: hFGF21(33-209)-V52 (ligand)
chain: DSSPLVQFGGQVRQRYLYTDDAQQTEAHLEIREDGTVGGAAHQSPESLLQLKALKPGVIQILGVKTSRFLCQKPDGALYGSLHFDPEACSFRELLLENGYNVYQSEAHSLPLHLPGNKSPHRDPASQGPARFLPLPGLPPALPEPPGILAPQPPDVGSSDPLSMVGPSQARSPSYAS
B6: hFGF21(33-209)-V7 (ligand)
chain: DSSPLLQFGGQVRQRYLYTDDAQETEAHLEIREDGTVGGAAHQSPESLLQLKALKPGVIQILGVKASRFLCQKPDGALYGSLHFDPEACSFRELLLENGYNVYQSEAHGLPLHLPGNRSPHRDPASQGPARFLPLPGLPPALPEPPGILAPQPPDVGSSDPLAMVGPSQARSPSYAS
B7: hFGF21(33-209)-V15 (ligand)
chain: DSSPLLQFGGQVRQRYLYTDDAQETEAHLEIREDGTVGGAAHQSPESLLQLKALKPGVIQILGVQTSRFLCQKPDGALYGSLHFDPEACSFRELLLENGYNVYQSEAHGLPLHLPGNRSPHRDPAPQGPARFLPLPGLPPALPEPPGILAPQPPDVGSSDPLAMVGPSQGRSPSYAS
B8: hFGF21(33-209)-V14-L174P, R154C-40 kDa bPEG-MA (ligand)
chain: DSSPLLQFGGQVRQRYLYTDDAQETEAHLEIREDGTVGGAAHQSPESLLELKALKPGVIQILGVKTSRFLCQKPDGALYGSLHFDPEACSFRELLLENGYNVYQSEAHGLPLHLPGNRSPHCDPAPQGPARFLPLPGLPPAPPEPPGILAPQPPDVGSSDPLAMVGPSQGRSPSYAS
modifications: 40 kDa branched maleimido-PEG on Cys 154 (numbered on SEQ ID NO:1)

What follows are binders tested against T1, human β-klotho (human, UniProt Q86Z14 1-1044) (assay: cell-based or functional assay).
T1 sequence (looked up): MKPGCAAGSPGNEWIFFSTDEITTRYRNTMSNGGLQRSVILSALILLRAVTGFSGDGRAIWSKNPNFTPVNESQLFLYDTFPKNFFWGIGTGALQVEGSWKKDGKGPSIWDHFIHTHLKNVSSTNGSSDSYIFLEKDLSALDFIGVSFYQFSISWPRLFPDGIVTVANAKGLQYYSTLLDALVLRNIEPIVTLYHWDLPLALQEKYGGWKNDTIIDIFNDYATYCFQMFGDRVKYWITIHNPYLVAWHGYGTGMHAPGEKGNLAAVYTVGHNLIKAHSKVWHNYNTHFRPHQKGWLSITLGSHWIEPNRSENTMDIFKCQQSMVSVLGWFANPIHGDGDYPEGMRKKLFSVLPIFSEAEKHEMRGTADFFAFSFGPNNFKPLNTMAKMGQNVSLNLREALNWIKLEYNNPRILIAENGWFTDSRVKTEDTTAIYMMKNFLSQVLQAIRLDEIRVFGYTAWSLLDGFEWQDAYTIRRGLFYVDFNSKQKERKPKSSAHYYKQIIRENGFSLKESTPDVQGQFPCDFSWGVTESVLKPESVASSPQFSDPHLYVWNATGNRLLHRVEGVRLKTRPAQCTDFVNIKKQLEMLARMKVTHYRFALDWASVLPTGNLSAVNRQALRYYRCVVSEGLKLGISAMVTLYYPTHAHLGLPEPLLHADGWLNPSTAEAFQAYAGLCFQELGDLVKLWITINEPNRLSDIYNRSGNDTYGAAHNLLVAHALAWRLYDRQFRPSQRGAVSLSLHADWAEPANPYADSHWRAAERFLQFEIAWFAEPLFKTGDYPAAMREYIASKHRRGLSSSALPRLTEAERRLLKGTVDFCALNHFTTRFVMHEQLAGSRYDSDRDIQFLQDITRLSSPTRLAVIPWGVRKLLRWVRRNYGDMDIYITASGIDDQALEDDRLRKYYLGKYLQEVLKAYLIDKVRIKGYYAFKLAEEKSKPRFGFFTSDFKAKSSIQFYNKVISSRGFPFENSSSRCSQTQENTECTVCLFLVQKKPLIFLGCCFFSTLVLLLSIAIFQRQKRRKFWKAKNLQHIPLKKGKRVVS
For B1, the “EC50 (nM), pERK In Cell Western” value was 6.7 nM and the “Fold-WT (EC50 of variant / EC50 of FGF21-WT)” value was 1 fold. In the case of B2, the “EC50 (nM), pERK In Cell Western” value is reported as 4.2 nM and the “Fold-WT (EC50 of variant / EC50 of FGF21-WT)” value is reported as 1.3 fold. For B3, the “EC50 (nM), pERK In Cell Western” value was 15 nM and the “Fold-WT (EC50 of variant / EC50 of FGF21-WT)” value was 2.7 fold. For B4, the “EC50 (nM), pERK In Cell Western” value was 11 nM and the “Fold-WT (EC50 of variant / EC50 of FGF21-WT)” value was 6.5 fold. B5 was tested, and the “EC50 (nM), pERK In Cell Western” value was 66 nM and the “Fold-WT (EC50 of variant / EC50 of FGF21-WT)” value was 94 fold. In the case of B6, the “EC50 (nM), pERK In Cell Western” value is reported as 19 nM and the “Fold-WT (EC50 of variant / EC50 of FGF21-WT)” value is reported as 6.8 fold. With B7 the “EC50 (nM), pERK In Cell Western” value was 3.3 nM and the “Fold-WT (EC50 of variant / EC50 of FGF21-WT)” value was 1.2 fold. With B8 the “EC50 (nM), pERK In Cell Western” value was 21 nM and the “Fold-WT (EC50 of variant / EC50 of FGF21-WT)” value was 3.3 fold.
